# Source: patent US11180762B2, “Methods and compositions for the treatment of cancer” (CHILDREN'S MEDICAL CENTER CORPORATION, priority 2014, dated 2021)
# “Also recorded” adds a separate entry of the source.
# Columns and labels:
# basal-A TNBCs = test: Bortezomib on TNBC cell lines in vitro; format: cell-based, human
# basal-A TNBC tumors = conditions: mouse, in vivo
# Excerpt: We next tested whether proteasome inhibition inhibited the growth of basal-like TNBC tumors in mice.
# breast cancer cell lines [1] = test: Colony formation assay; format: cell-based, human; conditions: AsiC 4 uM, paclitaxel 100 nM
# Description: (§1) For colony formation assay, 1,000 viable cells were treated for 6 h in round bottom 96-well plates and then transferred to 10-cm plates in serum-containing medium. Medium was replaced every 3 d. After 8-14 d, cells were fixed in methanol (−20 C) and stained with crystal violet. For sphere formation assay, 1,000/ml viable cells were treated for 6 h in round bottom 96-well plates and then cultured in suspension in serum-free DMEM/F12 1:1 (Invitrogen), supplemented with EGF (20 ng/ml, BD Biosciences), B27 (1:50, Invitrogen), 0.4% bovine serum albumin (Sigma) and 4 μg/ml insulin (Sigma). Spheres were counted after 1 or 2 weeks.
# breast cancer cell lines [2] = test: Sphere (mammosphere) formation assay; format: cell-based, human
# Description: as §1
# AKT1 = AKT1 mRNA and protein knockdown in breast cancer cell lines; format: cell-based, human; design: AKT1 protein silencing by flow cytometry: dose or concentration left out as unconfirmed; conditions: for AKT1 mRNA and protein knockdown across cell lines: basal-A, luminal, basal-B lines, fibroblasts
# Description: (§2) For uptake and silencing treatment, cells were plated at low density (10,000 cells/well in 96-well plates) and treated immediately. All AsiC and siRNA treatments were performed in either OptiMEM or WIT medium. Cell viability was assessed by CellTiter-Glo (Promega) or by Trypan-Blue staining in 96-well plates.
# For flow cytometry, cells were stained as previously described (Yu, F. et al (2007). let-7 Regulates Self Renewal and Tumorigenicity of Breast Cancer Cells. Cell 131, 1109-1123. ), briefly, direct immunostaining of EpCAM and AKT1 was performed using 1:50 dilutions of hAb for 30-60 minutes at 4° C. (BioLegend/BD). Cells were stained in PBS containing 0.5% FCS, 1 mM EDTA, and 25 mM HEPES. Samples were washed twice in the same buffer. Data was acquired using FACS-Canto II (BD Biosciences). Analyses were performed in triplicate and 10,000 gated events/sample were counted. All data analysis was performed using FlowJo (Treestar Inc.).
# qRT-PCR analysis was performed as described (Petrocca, F., et al. (2008). E2F1-regulated microRNAs impair TGFbeta-dependent cell-cycle arrest and apoptosis in gastric cancer. Cancer Cell 13, 272-286). Briefly, total RNA was extracted with Trizol (Invitrogen) and cDNA prepared from 1000 ng total RNA using Thermoscript RT kit (Invitrogen) as per the […] (Applied Biosystems) and a BioRad C1000 Thermal Cycler (Biorad). Relative CT values were normalized to GAPDH and converted to a linear scale.
# [3] = system: basal-A, luminal and basal-B breast cancer cell lines; test: Cell proliferation/viability by CellTiter-Glo in 10 breast cancer cell lines; format: cell-based, human
# Excerpt: To explore whether EpCAM-AsiCs could be used as anti-tumor agents in breast cancer, we examined by CellTiterGlo assay the effect of AsiCs directed against PLK1, a kinase required for mitosis, on survival of 10 breast cancer cell lines that included 5 basal-A TNBCs, 2 luminal cell lines, and 3 basal-B TNBCs. […] The anti-proliferative effect strongly correlated with EpCAM expression (FIG. 2B). The reduction in viable EpCAM+ cells after knockdown was due to induction of apoptosis, assessed by annexin V-propidium iodide staining and caspase activation (data not shown). To determine whether ligation of the EpCAM aptamer contributed to the anti-proliferative effect of the EpCAM-AsiC, we compared survival of cells that were treated with the PLK1 EpCAM-AsiC with cells treated with the aptamer on its own (FIG. 2C). […] Thus the PLK1 EpCAM-AsiC asserts its specific anti-tumor effect on EpCAM+ breast cancer cells by gene knockdown.
# as §2
# MB468-luc tumors = test: Tumor inhibition, EpCAM+ MB468-luc xenograft; format: in vivo, nude mice; conditions: 5 mg/kg sc every 3 d (72 h) for 2 wks
# Description: (§3) For tumor inhibition studies, MB468-luc (5×10^6) and MB231-luc-mCherry (5×10^5) cells trypsinized with Tryple Express (Invitrogen), resuspended in a 1:1 WIT-Matrigel solution and injected subcutaneously in the flank of 8-week old female Nu/J mice (Stock #002019, Jackson Laboratories). Tumors size was analyzed daily using the IVIS Spectra, after 5 days tumors were clearly visible. […] Mice were treated every 72 h for 14 days.
# Argonaute (AGO) = test: PLK1 siRNA association with Argonaute (pan-AGO immunoprecipitation, qRT-PCR); format: cell-based, human; conditions: MDA-MB-468 cells treated 2 days
# Excerpt: MB-468 cells, treated with PLK1 EPCAM-AsiC or siRNA for 2 days, were lysed, and cell lysates were immunoprecipitated with pan-AGO antibody or IgG isotype control. The amount of PLK1 siRNA in the immunoprecipitates was quantified by Taqman qRT-PCR, presented as log2 mean with SEM, relative to miR-16. **, P<0.01 by Student's t-test relative to siRNA-treated cells. ND, not detectable. […] This is likely because most RNAs that are taken up by cells are not released from endosomes to the cytosol (A. Wittrup et al., Visualizing lipid-formulated siRNA release from endosomes and target gene knockdown. Nature Biotechnology 2015, in press).
# Uptake was clearly detected at 22 hr, but increased greatly after 43 hr. To test whether EpCAM-AsiCs are specifically taken up by EpCAM bright cell lines, the 3′ end of the antisense strand of the AsiC was fluorescently labeled. […] Previous studies have shown that AsiCs are processed within cells by Dicer to release the siRNA from the aptamer (10, 12, 15).
# [4] = system: eGFP expression in BPLER and BPE cells; test: eGFP knockdown in GFP-expressing BPLER and BPE cells; format: cell-based, human; conditions: AsiC 4 μM without lipid, siRNA 100 nM with Dharmafect, 72 hours
# Description: FIG. 21A depicts the design of EpCAM-AsiC, containing an EpCAM aptamer and a PLK1 siRNA (sense strand disclosed as SEQ ID NO: 1 and antisense strand disclosed as SEQ ID NO: 2). […] EpCAM-AsiC targeting GFP was Alexa647 or Cy3 labeled at the 3′ end of the antisense siRNA strand and incubated with BPLER and BPE cells. Uptake was assessed 24 hours later by flow cytometry (FIG. 21C). Data are representative of 3 independent experiments. Cy3 and Alexa647-labeled EpCAM-AsiC was taken up by MB468 and BPLER (EpCAM+ cells) respectively and not by BPE (EpCAM−). MFI of each peak is shown (mock, gray). FIG. 21D depicts graphs of experiments in which, to test for gene silencing, BPLER and BPE were treated with EpCAM-AsiC targeting GFP (4 μM) and compared to Transfection controls using Dharmafect and GFP-siRNA (100 nM). Knockdown was assessed by flow cytometry 72 hours after incubation. Controls were mock and Dhrmafect only treatment (lipid). (n=4).
# as §2
# Cells were transfected with Dharmafect I per the manufacturer's protocol. See FIG. 9 for all siRNA sequences.
# MB468-luc cells = test: Tumor initiation by ex vivo treated EpCAM+ cells in nude mice; conditions: cells treated ex vivo 24 h/overnight, then implanted; imaged 20 days; listed as EpCAM-AsiC targeting GFP
# Description: For tumor initiation studies 8-week old female Nu/J mice (Stock #002019, Jackson Laboratories) were injected subcutaneously with MB468-luc (5×10^6) cells pretreated for 24 h with EpCAM-AsiC-GFP, EpCAM-AsiC-PLK1 or untreated. Cells were trypsinized with Tryple Express (Invitrogen), resuspended in WIT media and injected subcutaneously in the flank. Following intraperitoneal injection of 150 mg/kg D-luciferin (Caliper Life Sciences) luminescent images of the whole body were taken every 5 days for a total of 20 days using the IVIS Spectra system (Caliper Life Sciences).
# MB231-luc-mCherry tumors = test: Tumor inhibition, EpCAM− MB231-luc-mCherry xenograft; format: in vivo, nude mice; conditions: 5 mg/kg sc every 3 d (72 h) for 2 wks
# Description: as §3
molecule,measurement,setting,value
CC(C)C[C@H](NC(=O)[C@H](Cc1ccccc1)NC(=O)c1cnccn1)B(O)O [bortezomib],"killing and T-IC function (colony, mammosphere)",basal-A TNBCs,both killed basal-A TNBCs and also blocked T-IC function
same,viable cells after treatment,basal-A TNBCs; 24 hr,~40%
same,penetration into solid tumors,basal-A TNBC tumors,does not penetrate well into solid tumors
"CC(=O)O[C@H]1C(=O)[C@@]2(C)[C@H]([C@H](OC(=O)c3ccccc3)[C@]3(O)C[C@H](OC(=O)[C@H](O)[C@@H](NC(=O)c4ccccc4)c4ccccc4)C(C)=C1C3(C)C)[C@]1(OC(C)=O)CO[C@@H]1C[C@@H]2O [paclitaxel, reference compound]","colony formation, EpCAM+ basal-A and luminal lines",breast cancer cell lines [1],resistant clones emerged
same,"colony formation, EpCAM− basal-B lines",breast cancer cell lines [1],reducing colony formation but still resistant clones invariably emerged
same,"colony formation, cell lines tested",breast cancer cell lines [1],decreased colony formation in all cells lines
same,"sphere/mammosphere formation, cell lines tested",breast cancer cell lines [2],reduced sphere-formation in all
"AKT1 siRNA: AKT1 siRNA, sense SEQ ID NO: 29, antisense SEQ ID NO: 30 (sense GCUGGAGAACCUCAUGCUG; antisense CAGCAUGAGGUUCUCCAGC; listed as RNA, chemistry not given here) [reference compound]",AKT1 mRNA and protein knockdown across cell lines,AKT1,comparably knocked down expression in all the cell lines studied
"PLK1 siRNA: PLK1 siRNA, sense SEQ ID NO: 31, antisense SEQ ID NO: 32 (sense UGAAGAAGAUCACCCUCCUUA; antisense UAAGGAGGGUGAUCUUCUUCA; listed as RNA, chemistry not given here) [reference compound]","cell proliferation/viability, all cell lines tested",[3],suppressed the growth of all the cell lines
same,growth of EpCAM+ MB468 tumors,MB468-luc tumors,continued to grow without significant change; also recorded: neither of which had any anti-tumor activity
same,PLK1 siRNA bound to Ago / in the RISC,Argonaute (AGO),No PLK1 siRNA bound to Ago
"AKT1 EpCAM-AsiC: EpCAM aptamer-AKT1 siRNA chimera, sense SEQ ID NO: 23, antisense SEQ ID NO: 24 (nucleic acid, chemistry not fully specified) sense: GCGACUGGUUACCCGGUCGUUGCUGGAGAACCUCAUGCUGTT antisense: CAGCAUGAGGUUCUCCAGCTT",AKT1 protein silencing by flow cytometry,AKT1; EpCAM-AsiC for 5 days,specific AKT1 protein silencing
same,AKT1 mRNA and protein knockdown across cell lines,AKT1; listed as EpCAM-AsiC targeting AKT1,decreased AKT1 mRNA and protein levels
same,AKT1 mRNA and protein knockdown across cell lines,AKT1; listed as EpCAM-AsiCs targeting AKT1,only in EpCAM^bright luminal and basal-A TNBCs
"GFP EpCAM-AsiC: EpCAM aptamer-GFP siRNA chimera, sense SEQ ID NO: 25, antisense SEQ ID NO: 26 (nucleic acid, DNA at T, 2'-fluoro at CU, RNA at AG, backbone not given here; EpCAM aptamer fused to sense strand) sense: GCGACUGGUUACCCGGUCGUUUGGCUACGUCCAGGAGCGCATT antisense: UGCGCUCCUGGACGUAGCCTT","eGFP knockdown, BPLER vs BPE",[4]; listed as EpCAM-AsiCs targeting GFP,selectively knocked down expression in BPLER
same,"eGFP knockdown, BPLER vs BPE",[4]; listed as eGFP EpCAM-AsiCs,selectively knocked down expression only in BPLER
same,AKT1 mRNA and protein knockdown across cell lines,AKT1; listed as AsiCs targeting eGFP,had no effect on AKT1 levels
same,AKT1 mRNA and protein knockdown across cell lines,AKT1; listed as EpCAM-AsiC targeting GFP,did not effect any of the cell lines
same,"colony formation, cell lines tested",breast cancer cell lines [1],had no effect
same,"sphere/mammosphere formation, cell lines tested",breast cancer cell lines [2],had no effect
same,"tumor initiation, EpCAM+ cells",MB468-luc cells,displayed tumors after 5 days; also recorded: displayed increase in tumor initiation
same,growth of EpCAM+ MB468 tumors,MB468-luc tumors; listed as GFP AsiC,did not increase in size as much as control untreated mice
same,growth of EpCAM+ MB468 tumors,MB468-luc tumors; listed as eGFP-targeting AsiCs,continued to grow
same,growth of EpCAM− MB231 tumors,MB231-luc-mCherry tumors; listed as EpCAM-Asic targeting GFP,suppress tumor growth in both EpCAM+ and EpCAM-tumors but didn't eliminate tumors
same,growth of EpCAM− MB231 tumors,MB231-luc-mCherry tumors; listed as eGFP-targeting AsiCs,continued to grow
